Data taken from PMC9391306.
Read-outs that look alike come from different tables or passages of the source.

Legend:
PARP1 L698A/L701A [1] = biological target: T1, PARP1 L698A/L701A (UniProt P09874 1-1014, L698A;L701A); experiment: fluorescence polarization
PARP1 L713F [2] = biological target: T2, PARP1 L713F (UniProt P09874 1-1014, L713F); experiment: fluorescence polarization
PARP1 G558E = PARP1 G558E (UniProt P09874 1-1014, G558E); experiment: fluorescence polarization
PARP1 M686G/V687P [3] = biological target: T3, PARP1 M686G/V687P (UniProt P09874 1-1014, M686G;V687P); experiment: fluorescence polarization
PARP1 G558V [4] = biological target: T4, PARP1 G558V (UniProt P09874 1-1014, G558V); experiment: fluorescence polarization
PARP1 ΔART [5] = biological target: T5, PARP1 ΔART (UniProt P09874 1-786); experiment: fluorescence polarization
PARP1 G558L [6] = biological target: T6, PARP1 G558L (UniProt P09874 1-1014, G558L); experiment: fluorescence polarization
PARP1 ΔV687-E688 (ΔVE) [7] = biological target: T7, PARP1 ΔV687-E688 (ΔVE) (UniProt P09874 1-1014, del687-688); experiment: fluorescence polarization
PARP1 WT [8] = biological target: T8, PARP1 WT (UniProt P09874 1-1014); experiment: fluorescence polarization
PARP1 V687A/E688A [9] = biological target: T9, PARP1 V687A/E688A (UniProt P09874 1-1014, V687A;E688A); experiment: fluorescence polarization
PARP1 L698A/L701A [10] = biological target: T1, PARP1 L698A/L701A; experiment: fluorescence polarization; remark: listed apart in the source
PARP1 L713F [11] = biological target: T2, PARP1 L713F; experiment: fluorescence polarization; remark: listed apart in the source
PARP1 M686G/V687P [12] = biological target: T3, PARP1 M686G/V687P; experiment: fluorescence polarization; remark: listed apart in the source
PARP1 G558V [13] = biological target: T4, PARP1 G558V; experiment: fluorescence polarization; remark: listed apart in the source
PARP1 Y569A = PARP1 Y569A (UniProt P09874 1-1014, Y569A); experiment: fluorescence polarization
PARP1 ΔART [14] = biological target: T5, PARP1 ΔART; experiment: fluorescence polarization; remark: listed apart in the source
PARP1 Y569L = PARP1 Y569L (UniProt P09874 1-1014, Y569L); experiment: fluorescence polarization
PARP1 G558L [15] = biological target: T6, PARP1 G558L; experiment: fluorescence polarization; remark: listed apart in the source
PARP1 ΔV687-E688 (ΔVE) [16] = biological target: T7, PARP1 ΔV687-E688 (ΔVE); experiment: fluorescence polarization; remark: listed apart in the source
PARP1 WT [17] = biological target: T8, PARP1 WT; experiment: fluorescence polarization; remark: listed apart in the source
PARP1 V687A/E688A [18] = biological target: T9, PARP1 V687A/E688A; experiment: fluorescence polarization; remark: listed apart in the source
[19] = biological target: T10, PARP1 Zn1-Zn3 (linked);PARP1 WGR-HD (Homo sapiens?;Homo sapiens?, UniProt P09874;P09874 1-366;527-786, del97-206|del663-676); experiment: fluorescence polarization
PARP1 WGR-HD = PARP1 WGR-HD (UniProt P09874 527-786, del663-676); experiment: fluorescence polarization
PARP1 WGR-CAT = PARP1 WGR-CAT (UniProt P09874 518-1014); experiment: fluorescence polarization
[20] = biological target: T10, PARP1 Zn1-Zn3 (linked);PARP1 WGR-HD; experiment: X-ray crystallography
[21] = biological target: PARP1 Zn1;PARP1 Zn3;PARP1 WGR-HD (Homo sapiens?;Homo sapiens?;Homo …, UniProt P09874;P09874;P09874 1-96;216-366;527-786, ||del663-676); experiment: X-ray crystallography
[22] = biological target: PARP1 Zn1-Zn3 (linked);PARP1 WGR-CAT ΔVE (Homo sapiens?;Homo sapiens?, UniProt P09874;P09874 1-366;518-1014, del97-206|del687-688); experiment: X-ray crystallography

B1: 18-bp DSB duplex (dsDNA)
DNA 1: GGGTTGCGGCCGCTTGGG
DNA 2: CCCAAGCGGCCGCAACCC
PARP1 L698A/L701A [1]
  Kd: 64.4 ± 13.4 nM
PARP1 L713F [2]
  Kd: 21.3 ± 3.5 nM
PARP1 G558E
  Kd: 118 ± 23.2 nM
PARP1 M686G/V687P [3]
  Kd: 7.3 ± 2.3 nM
PARP1 G558V [4]
  Kd: 66.7 ± 7.4 nM
PARP1 ΔART [5]
  Kd: 12.1 ± 4.6 nM
PARP1 G558L [6]
  Kd: 57.2 ± 5.8 nM
PARP1 ΔV687-E688 (ΔVE) [7]
  Kd: 9.4 ± 1.3 nM
PARP1 WT [8]
  Kd: 59.7 ± 9.2 nM
PARP1 V687A/E688A [9]
  Kd: 71.2 ± 10.7 nM
PARP1 L698A/L701A [10]
  Kd: 15.3 ± 7.8 nM
PARP1 L713F [11]
  Kd: 6.2 ± 3.1 nM
PARP1 M686G/V687P [12]
  Kd: 4.8 ± 1.4 nM
PARP1 G558V [13]
  Kd: 10.2 ± 1.5 nM
PARP1 Y569A
  Kd: 20.6 ± 1.4 nM
PARP1 ΔART [14]
  Kd: 15.4 ± 1.8 nM
PARP1 Y569L
  Kd: 40.8 ± 2.1 nM
PARP1 G558L [15]
  Kd: 7.6 ± 1.2 nM
PARP1 ΔV687-E688 (ΔVE) [16]
  Kd: 8 ± 1.9 nM
PARP1 WT [17]
  Kd: 8.4 ± 1 nM
PARP1 V687A/E688A [18]
  Kd: 10.3 ± 3.6 nM
[19]
  Kd: 7 ± 2.4 nM
PARP1 WGR-HD
  binding result: no binding
PARP1 WGR-CAT
  binding result: no binding

B2: 10-bp palindromic duplex (dsDNA)
DNA 1: GCCTGCAGGC
DNA 2: GCCTGCAGGC
[20]
  binding result: binds

B3: 12-bp palindromic duplex (dsDNA)
DNA 1: ATGCGGCCGCAT
DNA 2: ATGCGGCCGCAT
[21]
  binding result: binds

B4: 5-bp duplex (dsDNA)
DNA 1: CGACG
DNA 2: CGTCG
[22]
  binding result: binds
